This is an account of results in US6403764.

Changes are numbered by the printed parent chain. Names and notes keep the numbering of the source.

Assay [1] deals with T1, human IGFBP-1 (human, UniProt P08833 26-259).
T1 construct: mature; Secreted recombinant protein; also called IGFBP-I
T1 sequence (looked up): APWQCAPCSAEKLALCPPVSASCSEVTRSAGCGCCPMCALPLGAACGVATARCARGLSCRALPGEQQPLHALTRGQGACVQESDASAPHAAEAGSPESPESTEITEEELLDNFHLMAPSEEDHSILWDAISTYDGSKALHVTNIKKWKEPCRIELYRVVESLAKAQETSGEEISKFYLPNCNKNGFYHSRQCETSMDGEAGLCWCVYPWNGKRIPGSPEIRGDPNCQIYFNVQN
The experiment in a line: competitive phage ELISA. Here is the method: (§1) Phage particles were harvested and resuspended in PBS buffer as described in Lowman, H. B., "Phage Display of Peptide Libraries on Protein Scaffolds," in Cabilly, S. (ed.), *Combinatorial Peptide Library Protocols* (Humana Press Inc.: Totowa, N.J., 1998), pp. 249–264. Then phage concentrations were normalized to yield a maximal ELISA signal of 0.2–0.4 for each mutant (Lowman, in Cabilly, S. (ed.), supra). Threefold serial dilutions of soluble competitor were prepared on non-absorbent microtiter plates (Nunc, F, 96 wells) with binding buffer (0.5% TWEEN™ 20/PBS) containing phage at the previously-determined concentrations. The dilution range of competitor protein extended over six orders of magnitude, starting at 5 µM for IGFBP-1 and 500 nM for IGFBP-3. After blocking, the plates containing immobilized target were washed with 0.05% TWEEN™/PBS buffer and subsequently incubated with 80 µl/well of the premixed phage-competitor solutions for 1 hour at room temperature. […] Numbers in Table I represent mean±standard deviation of individually assessed $IC50$ values.
(§2) At least two different clones of every mutant were tested.
A general note: In an ELISA, binding on a coated surface is turned into a signal by an enzyme label.

The target in assay [2] is T2, recombinant human IGFBP-3 (human, UniProt P17936 28-291).
T2 construct: mature; Secreted recombinant protein
T2 sequence (P17936 28-291): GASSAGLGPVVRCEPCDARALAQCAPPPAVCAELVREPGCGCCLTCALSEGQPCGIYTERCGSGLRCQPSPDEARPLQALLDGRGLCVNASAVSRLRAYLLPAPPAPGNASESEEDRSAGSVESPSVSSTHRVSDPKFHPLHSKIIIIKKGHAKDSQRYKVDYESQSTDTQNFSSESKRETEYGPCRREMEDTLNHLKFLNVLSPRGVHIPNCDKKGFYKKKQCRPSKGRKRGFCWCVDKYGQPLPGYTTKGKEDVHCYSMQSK
Description: competitive phage ELISA. On the procedure: as §1, §2

B1: IGF-I D12A displayed on phage (ligand)
chain: SPETLCGAELVAALQFVCGDRGFYFNKPTGYGSSSRRAPQTGIVDECCFRSCDLRRLEMYCAPLKPAKSV
notes: On phage; G1S-A70V template; not shown: M13 gene III fragment (residues 249-406), the display carrier, and its junction
The IC50 is the point on the concentration scale where inhibition reaches its midpoint. For B1, the IC50 in assay [1] came to 4.3 nM; in assay [2] it was 1.49 nM.

B2: IGF-I D20A displayed on phage (ligand)
chain: B1 chain with A12D, D20A
notes: On phage; G1S-A70V template; not shown: Display carrier: M13 gene III protein fragment (residues 249-406) and the junction to it
On to B2, for which the IC50 in assay [1] was determined as 8.4 nM; in assay [2], 1.11 nM.

B3: IGF-I L10A displayed on phage (ligand)
chain: B1 chain with L10A, A12D
notes: as for B1
Turning to B3, the results for the IC50 in assay [1] and in assay [2] were 311 nM and 3.55 nM, respectively.

B4: IGF-I E3A displayed on phage (ligand, not shown: large carriers; small tags and cut ends)
chain: B1 chain with E3A, A12D
notes: On phage; G1S-A70V template
Take B4: the figures for the IC50 in assay [1] and in assay [2] were 278 nM and 1.05 nM, respectively.

B5: IGF-I K68A displayed on phage (ligand, not shown: large carriers; small tags and cut ends)
chain: B1 chain with A12D, K68A
notes: On phage; G1S-A70V template
B5: the IC50 in assay [1] was 10.5 nM; in assay [2], 0.76 nM.

B6: IGF-I F16A displayed on phage (ligand)
chain: B1 chain with A12D, F16A
notes: as for B1
For the molecule B6, the IC50 is 57.8 nM in assay [1] and 1.32 nM in assay [2].

B7: IGF-I L14A displayed on phage (ligand)
chain: B1 chain with A12D, L14A
notes: as for B1
B7: the IC50 in assay [1] is 36.7 nM; in assay [2], 0.9 nM.

B8: IGF-I E58A displayed on phage (ligand)
chain: B1 chain with A12D, E58A
notes: On phage; G1S-A70V template; not shown: M13 gene III protein fragment (residues 249-406), the phage display carrier, and its junction to IGF-I
As for B8, the IC50 in assay [1] is 11.9 nM; in assay [2] it was 1.03 nM.

B9: IGF-I G22A displayed on phage (ligand)
chain: B1 chain with A12D, G22A
notes: as for B2
For B9, the IC50 in assay [1] came out at 15.9 nM; in assay [2] it was 2.07 nM.

B10: IGF-I F25A displayed on phage (ligand)
chain: B1 chain with A12D, F25A
notes: as for B2
Consider B10, for which the IC50 is 181 nM in assay [1] and 3.69 nM in assay [2].

B11: IGF-I F23A displayed on phage (ligand)
chain: B1 chain with A12D, F23A
notes: as for B2
As to B11, the IC50 came to 10.9 nM in assay [1] and 2.18 nM in assay [2].

B12: IGF-I L54A displayed on phage (ligand)
chain: B1 chain with A12D, L54A
notes: On phage; G1S-A70V template; not shown: Display partner: M13 gene III protein fragment (residues 249-406, mature count) and the junction to it
With B12, the IC50 in assay [1] stood at 23.1 nM; in assay [2], 1.83 nM.

B13: IGF-I K27A displayed on phage (ligand)
chain: B1 chain with A12D, K27A
notes: as for B2
On to B13, for which the 50% inhibitory concentration (IC50) in assay [1] is 12.8 nM; in assay [2], 0.66 nM.

B14: IGF-I K65A displayed on phage (ligand)
chain: B1 chain with A12D, K65A
notes: as for B8
For B14, the half-maximal inhibitory concentration (IC50) came out at 12.4 nM in assay [1] and 0.69 nM in assay [2].

B15: IGF-I E9A displayed on phage (ligand)
chain: B1 chain with E9A, A12D
notes: as for B1
Take B15: the IC50 in assay [1] worked out at 8.6 nM; in assay [2] it was 1.32 nM.

B16: IGF-I D53A displayed on phage (ligand)
chain: B1 chain with A12D, D53A
notes: as for B12
With B16, the results for the IC50 in assay [1] and in assay [2] were 15.3 nM and 1.05 nM, respectively.

B17: IGF-I L5A displayed on phage (ligand, not shown: large carriers; small tags and cut ends)
chain: B1 chain with L5A, A12D
notes: On phage; G1S-A70V template
On to B17, for which the values for the IC50 in assay [1] and in assay [2] were 55.3 nM and 1.53 nM, respectively.

B18: IGF-I L57A displayed on phage (ligand)
chain: B1 chain with A12D, L57A
notes: as for B8
With B18, the IC50 in assay [1] amounted to 21.8 nM; in assay [2], 1.78 nM.

B19: IGF-I G19A displayed on phage (ligand)
chain: B1 chain with A12D, G19A
notes: as for B1
Consider B19, for which the values for the IC50 in assay [1] and in assay [2] were 11 nM and 0.9 nM, respectively.
